The conditions of this data set: Homo sapiens, Urea, CD, phosphate citrate borate 2 mM 2 mM 2 mM, NaCl 10 mM, whole UniProt chain shown.

“And” between values parts separate entries of the source, which are not always exact repeats. Equal entries are not always repeated.

B1: Alpha-lactalbumin wild type, P00709 (protein)
chain: MRFFVPLFLVGILFPAILAKQFTKCELSQLLKDIDGYGGIALPELICTMFHTSGYDTQAIVENNESTEYGLFQISNKLWCKSSQVPQSRNICDISCDKFLDDDITDDIMCAKKILDIKGIDYWLAHKALCTEKLEQWLCEKL
For B1, under “pH 2, 20 °C”, the denaturant m value was 0.54 kcal/mol/M and 0.67 kcal/mol/M. Also, where the note is “pH 7, 2 °C, transition: 3”, the denaturant m value is 0.95 kcal/mol/M and 0.55 kcal/mol/M; the “denaturant midpoint (higher = more stable)” value is 2.24 M and 2.34 M; the unfolding free energy was 2.13 kcal/mol and 1.27 kcal/mol.

The record behind these values is FireProtDB (doi:10.1002/prot.10406).
